In publication PMC8960791 (2022):

Molecular target: soluble HLA-E-VL9, HLA-E*01:03 heavy chain refolded with β2-microglobulin and synthetic VL9 peptide (human | )
Assay: SPR

koff: 0.51 s⁻¹
B1: 3H4 IgG, recombinant 3H4 in a human IgG1 backbone (antibody, V domains shown)
VH: EVQLQESGPELVKPGASVKIPCKASGYTFTDYNMDWVKQSHGKSLEWIGDINPNNGGTIYNQKFKGKATLTVDKSSSTAYMELRSLTSEDTAVYYCARPDYYGSSYGWYFDVWGTGTTVTVSS
VL: DIVITQSPSSMYASLGERVTITCKASQDINSYLSWFQQKPGKSPKTLIYRANRLVDGVPSRFSGSGSGQDYSLTISSLEYEDMGIYYCLQYDEFPLTFGAGTKLELK
